Laboratory results from PMC5134256 (Nature, 2016).

Biological target: the molecule itself
Test: crystal structure

B1: Cse2 subunit of E. coli Cascade, His6 tag cleaved (natural protein, E. coli K12, UniProt P76632 1-160, looked up)
chain: MADEIDAMALYRAWQQLDNGSCAQIRRVSEPDELRDIPAFYRLVQPFGWENPRHQQALLRMVFCLSAGKNVIRHQDKKSEQTTGISLGRALANSGRINERRIFQLIRADRTADMVQLRRLLTHAEPVLDWPLMARMLTWWGKRERQQLLEDFVLTTNKNA
stoichiometry N: 2
